Assay results as given in patent US20110305629A1 (published 2011).

T1: soluble αvβ6 (UniProt P06756 31-992; P18564 22-709, Biotinylated in the blocking ELISA of FIG. 7; the biotin sites are not stated.)
T1 alpha: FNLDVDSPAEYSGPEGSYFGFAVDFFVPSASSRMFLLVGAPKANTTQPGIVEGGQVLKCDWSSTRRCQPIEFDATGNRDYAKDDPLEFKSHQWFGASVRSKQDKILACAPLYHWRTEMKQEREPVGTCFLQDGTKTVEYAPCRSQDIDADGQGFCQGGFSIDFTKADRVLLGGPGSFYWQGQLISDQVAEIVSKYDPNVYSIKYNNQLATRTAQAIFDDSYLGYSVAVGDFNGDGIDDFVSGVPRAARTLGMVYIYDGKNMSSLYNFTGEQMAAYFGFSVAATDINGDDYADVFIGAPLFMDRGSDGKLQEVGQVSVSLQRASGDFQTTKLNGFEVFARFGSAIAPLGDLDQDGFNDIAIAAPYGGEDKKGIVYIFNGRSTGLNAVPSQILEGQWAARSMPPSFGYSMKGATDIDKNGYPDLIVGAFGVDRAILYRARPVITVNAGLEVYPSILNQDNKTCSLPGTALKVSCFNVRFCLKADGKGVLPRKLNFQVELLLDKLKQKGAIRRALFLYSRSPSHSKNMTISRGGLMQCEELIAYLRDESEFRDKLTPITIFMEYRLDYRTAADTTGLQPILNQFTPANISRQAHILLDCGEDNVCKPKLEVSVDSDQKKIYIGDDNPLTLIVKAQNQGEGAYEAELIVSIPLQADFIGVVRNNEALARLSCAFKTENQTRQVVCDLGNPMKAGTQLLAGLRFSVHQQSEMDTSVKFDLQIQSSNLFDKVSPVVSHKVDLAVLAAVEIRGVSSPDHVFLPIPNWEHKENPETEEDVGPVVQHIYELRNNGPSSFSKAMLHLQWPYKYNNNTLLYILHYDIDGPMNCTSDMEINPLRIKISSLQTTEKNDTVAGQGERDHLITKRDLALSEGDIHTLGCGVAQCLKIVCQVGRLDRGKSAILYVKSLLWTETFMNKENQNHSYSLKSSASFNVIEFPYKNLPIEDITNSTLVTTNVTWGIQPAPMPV
T1 beta: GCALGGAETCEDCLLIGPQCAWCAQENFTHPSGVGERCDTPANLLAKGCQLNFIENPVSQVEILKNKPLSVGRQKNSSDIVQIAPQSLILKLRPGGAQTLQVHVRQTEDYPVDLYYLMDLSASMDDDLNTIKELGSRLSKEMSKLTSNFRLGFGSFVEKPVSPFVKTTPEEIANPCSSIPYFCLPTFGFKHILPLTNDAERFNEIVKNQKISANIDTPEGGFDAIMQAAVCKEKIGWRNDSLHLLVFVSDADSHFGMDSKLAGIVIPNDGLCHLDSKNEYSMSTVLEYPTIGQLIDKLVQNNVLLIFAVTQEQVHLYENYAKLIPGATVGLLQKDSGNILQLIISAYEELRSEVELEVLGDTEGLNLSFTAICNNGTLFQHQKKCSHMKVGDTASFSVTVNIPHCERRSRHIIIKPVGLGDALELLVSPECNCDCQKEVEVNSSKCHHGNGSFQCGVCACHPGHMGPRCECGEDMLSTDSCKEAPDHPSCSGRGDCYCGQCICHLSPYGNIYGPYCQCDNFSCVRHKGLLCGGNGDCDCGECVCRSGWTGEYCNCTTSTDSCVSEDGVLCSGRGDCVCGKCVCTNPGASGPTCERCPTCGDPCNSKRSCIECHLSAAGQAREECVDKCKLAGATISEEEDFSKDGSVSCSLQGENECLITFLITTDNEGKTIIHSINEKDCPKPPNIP

B1: chimeric 3G9 antibody (ch3G9) (antibody, V domains shown)
VH: EVMLVESGGGLVQPGGSLRLSCAASGFTFSRYVMSWVRQAPGKGLEWVASISSGGRMYYPDTVKGRFTISRDSAKNSLYLQMNSLRAEDTAVYYCARGSIYDGYYVFPYWGQGTLVTVSS
VL: DIVLTQSPATLSLSPGERATLSCRASQSVSTSSYSYMYWYQQKPGQAPRFLIKYASNLESGIPARFSGSGSGTDFTLTISSLEPEDFAVYYCQHNWEIPFTFGGGTKVEIK
B2: chimeric 3G9 antibody containing a N to S substitution within the N-linked glycosylation site in the first CDR of the light chain (ch3G9S) (antibody, V domains shown)
VH: B1 VH
VL: B1 VL

Target: T1, soluble αvβ6
Experiment: binding ELISA

Binder	EC50
B1	0.036 µg/mL
B2	0.043 µg/mL
